Measurements: article PMC11166852, “Low-temperature features of the psychrophilic chaperonin from Pseudoalteromonas haloplanktis” (Archives of Microbiology, 2024)
One block for each molecule: values may come before it.

What was measured:
[1] = molecular target: Cpn60 from Pseudoalteromonas haloplanktis (Pseudoalteromonas haloplanktis); assay: negative-stain electron microscopy; 0.125 µM Cpn60 in buffer C preincubated at 5 °C or 25 °C; where indicated 1 mM ATP, 1 mM ADP and 0.375 µM Cpn10; 1% uranyl acetate
[2] = molecular target: Cpn60 from Pseudoalteromonas haloplanktis (Pseudoalteromonas haloplanktis); assay: SEC; analytical gel filtration, Superdex 75 GL (10/300), buffer C (20 mM MOPS pH 7.2, 150 mM KCl, 5 mM MgCl2), run at 5 °C, in the absence or presence of 1 mM ATP
[3] = molecular target: Cpn60 from Pseudoalteromonas haloplanktis (Pseudoalteromonas haloplanktis); assay: native gel or EMSA; native PAGE of purified proteins, Coomassie brilliant blue staining
[4] = molecular target: Cpn60 from Pseudoalteromonas haloplanktis (Pseudoalteromonas haloplanktis)
[5] = molecular target: single-ring SR-GroEL (Escherichia coli) (UniProt P0A6F5); assay: SEC; analytical gel filtration, Superdex 75 GL (10/300), buffer C (20 mM MOPS pH 7.2, 150 mM KCl, 5 mM MgCl2), run at 5 °C, in the absence or presence of 1 mM ATP
[6] = molecular target: Cpn60 from Pseudoalteromonas haloplanktis (Pseudoalteromonas haloplanktis); assay: MST; Cpn60 labelled with NT-647-NHS, serial dilutions of Cpn10 in buffer C with 1 mM ADP, 25 °C, Monolith NT.115, MST power 80%
Escherichia coli GroEL = molecular target: T1, Escherichia coli GroEL (Escherichia coli, UniProt P0A6F5 1-548, fluorophore from the NT-647-NHS labeling kit (in the MST measurements only)); assay: as above; details: both partners purified
T1 construct: GroEL (Cpn60) of Escherichia coli; Tetradecamer (MW 800 kDa); also called Ec GroEL; Ec chaperonin; source: E. coli, purified as described (Weissman et al. 1995; Hayer-Hartl et al. 1996; Kusmiercyk and Martin 2000); copies: 14
T1 sequence (P0A6F5 whole entry): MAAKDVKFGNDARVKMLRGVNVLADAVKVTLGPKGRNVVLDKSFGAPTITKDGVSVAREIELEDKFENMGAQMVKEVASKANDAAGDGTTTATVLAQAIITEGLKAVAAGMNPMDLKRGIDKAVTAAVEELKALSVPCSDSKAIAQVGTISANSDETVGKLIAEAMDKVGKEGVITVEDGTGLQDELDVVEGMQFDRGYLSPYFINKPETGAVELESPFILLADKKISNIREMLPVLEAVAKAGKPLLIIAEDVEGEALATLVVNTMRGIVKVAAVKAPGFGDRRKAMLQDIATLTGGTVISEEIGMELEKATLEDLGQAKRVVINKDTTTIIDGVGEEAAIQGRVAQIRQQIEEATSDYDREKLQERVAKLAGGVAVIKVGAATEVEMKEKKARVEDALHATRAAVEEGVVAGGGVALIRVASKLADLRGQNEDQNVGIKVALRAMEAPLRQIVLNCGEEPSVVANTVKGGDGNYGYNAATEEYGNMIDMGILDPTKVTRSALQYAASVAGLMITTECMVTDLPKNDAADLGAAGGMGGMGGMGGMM

Molecule: Cpn60 from Pseudoalteromonas haloplanktis (natural protein)
stoichiometry N [1]: 14
stoichiometry N [2]: 14
stoichiometry N [3]: 14

B1: Cpn10 from Pseudoalteromonas haloplanktis (natural protein)
chain: MNIRPLHDRVIVKRLEEETKSAGGIVLTGSAAEKSTRGEVVAVGNGRTLDNGDVRALEVKVGDTVLFGSYVEKAEKIEGQEYLIMREDNILGIVG
Kd [6]: 352 nM

B2: Escherichia coli GroES (natural protein, UniProt P0A6F9 1-97, looked up)
chain: MNIRPLHDRVIVKRKEVETKSAGGIVLTGSAAAKSTRGEVLAVGNGRILENGEVKPLDVKVGDIVIFNDGYGVKSEKIDNEEVLIMSESDILAIVEA
notes: GroES (Cpn10) of Escherichia coli; also called Ec GroES; source: E. coli, purified as described (Weissman et al. 1995; Hayer-Hartl et al. 1996; Kusmiercyk and Martin 2000)
Kd (Escherichia coli GroEL): 8.8 ± 1.8 nM

Next, values leading:

stimulation of Ph Cpn60 ATPase by a five-fold molar excess of α-casein (10 °C and 25 °C, with or without Ph Cpn10) [4]: 3 fold
Molecule: α-casein (from UniProt P02662 16-214) (natural protein)

stoichiometry N [5]: 7
Molecule: single-ring SR-GroEL (from UniProt P0A6F5 1-548) (natural protein)
